The source of these data is the DeepSol protein solubility set.

The nature of the data set: soluble on expression in E. coli; label from the status in PepcDB or PDB records.
Take “MEHDLNDMMVFLAVVETGSFTLAADRLGMPKANVSRKVSRLEKNLAVTLLERSTRSQHLTEAGRRYLAHCKRIHEELDLATASVCELFHSYTGELKIGASVASGQQVLRPALGKFMRQYPDLKVQLNLVNRRVDFIEEGFDVVIRIGQLNDSMLIAKKLGAINRKIFASPSYLAKQGNPDKVEQLTEHQLLIMNPLNISGNKDLKLPLTSTDHETFTLDCQPRLLVDDFSMLKQAIVDGLGIGVLPDYMCRQEVASGQLVNILPDWGMAKVDIYALYPKHRAKIPKVKAFIDFVSELYGEVL”: the “soluble on expression in E. coli” value is “not soluble”.

Consider “MEHLSQDEVIRLASTPCSAPALKRAFLFSCLTALRKSDIKKLTWEEIQPYGSDGVMYVTTRMQKTKDIVHNPISEEALELIGYSPDKRGKVFPDFKDSMTQAPLKNWLKDAGITKHISYHCSRHSFACLQLDAGTSIAVVQRYLGHKNVATTEVYAKISDAQKRASVGLEHHHHHH”, for which the “soluble on expression in E. coli” value is “not soluble”.

As to “MEHVAFGSEDIENTLAKMDDGQLDGLAFGAIQLDGDGNILQYNAAEGDITSRDPKQVIGKNFFKDVAPCTDSPEFYGKFKEGVASGNLNTMFEYTFDYQMTPTKVKVHMKKALSGDSYWVFVKRV”, the “soluble on expression in E. coli” value is on record as “soluble”.

For the sequence “MEHYMNTLAETMQRYVEKHDLHNLEGIKQTAIEGVWFYRSSKGNNRQPFVYQSGIIVLGQGHKNIHIGQTPVQYGPDDYLVVGVPMPLECEAFATNNEPLLGISIDISPTLLHKLVKKLEAQKFSNICEDSKRCGLKSVRMNDAMLDACKRLMKALCNDLDVAILGESLLEEIVYRTLVSKEGYVLFELAHQEGSYARVAKALNRVHAEYHEQLNVQTLAEEANMSVSAFHQAFRSVTLESPLQYIKKVRLNKARDLIQLEGKRVNDAARLVGYSSPSQFSREYKRHFNETPRSTKA”, the “soluble on expression in E. coli” value is reported as “not soluble”.

For the sequence “MEIERRLVLEVVRVTEQAALAASRFAGKGDKEAVDEAGTQAMRRVLNELPIRGTVVIGEGEMDEAPMLYIGEVLGQGGLEVDIAVDPVEGTTTVAKGLPNAVTVIALSEKGGLFHAPDMYMEKLIVPPSAVGLVDLTWPVSVNLRALALALQRSVEDLVVVVLEPPRHERLIREIRKAGAPVKLISDGDVIAALAAAIRGTGVHAVMGIGGAPEGVLTAAALKCLGGEIQARFVPQNEEERERLKAMGGDEHRIYKTEDLAPGKEIVFAATGITDGDILEGVRFFGGGARTHSIVMGHATRVVRFIDSIHLFETGARVTIRV”, the “soluble on expression in E. coli” value is given as “soluble”.

On to “MEIKDTYNIGELSPGMTATFEGEVISALPIKEFKRADGSIGKLKSFIVRDETGSIRVTLWDNLTDIDVGRGDYVRVRGYIREGYYGGLECTANYVEILKKGEKIESLEHHHHHH”, for which the “soluble on expression in E. coli” value is given as “not soluble”.

“MEIMLTYKTFKILGREILIGVVWEEKIQGIAYSLDGLEFLKDQLSRVTSHLKSRGVKVNLLEEKSRYPDLVFDVLKGKIGNEKGFEELSLEGLTRFEIKVYSWLVKNVKRGEVITYGKVAKALKTSPIAVGGAMKRNPYPIIVPCHRVVGKNNPWLYTPKPSYKKFLLEVEGWIS”: the “soluble on expression in E. coli” value is “soluble”.

Turning to “MEIQFLGTGAGQPAKARNVSSLVLKLLDEINEVWMFDCGEGTQRQILETTIKPRKVKKIFITHMHGDHVFGLPGFLSSRAFQANEEQTDLDIYGPVGIKSFVMTALRTSGSRLPYRIHFHEFDESSLGKIMETDKFTVYAEKLDHTIFCMGYRVVQKDLEGTLDAEALKLAGVPFGPLFGKVKNGENVTLEDGREIIAKDYISEPKKGKVITILGDTRKTDASIRLALGADVLVHESTYGKGDERIAKSHGHSTNMQAADIAKQANAKRLLLNHVSARFMGRDCWQMEEDAKTIFSNTHLVRDLEEVGILEHHHHHH”, the “soluble on expression in E. coli” value is reported as “soluble”.

As to “MEITDVRLRRVETDGRMKAISSITIDGEFVIHDIRVIDGNEGLFVAMPSKRTPDGEFRDIAHPINSGTRAKIQEAVLAAYEVADEPAVNEESSADESVVEEN”, the “soluble on expression in E. coli” value was “not soluble”.

In the case of “MEKAPLLLETVEQAVRILQESPFVAIWNYKVLSVQAGAVALALPAQPQFYRPGGIIQGGCLMTLADTAFWLAAMTELGIDAPIVTLEMKTHFLRAAQADVYCRAEVMKSGRRVTYGTATITDAAGQTLSHHTLTYLAA”, the “soluble on expression in E. coli” value is listed as “not soluble”.

For “MEKEKKGAKHELDLSSILQFVAPGTPLRAGMENVLRANTGGLIVVGYNDKVKEVVDGGFHINTAFSPAHLYELAKMDGAIILSDSGQKILYANTQLMPDATISSSETGMRHRTAERVAKQTGCLVIAISERRNVITLYQENMKY”, the “soluble on expression in E. coli” value is recorded as “not soluble”.

Turning to “MEKILEKIEEFFGFIPEIFKVLEDEPEILEAYYDKMEKILSNDALPLVTKELIGVGAAAALGSEHCLKTHIKAAKRLDAGGDEILLAILIGASMAESTALSRSLRVFKEERMDL”, the “soluble on expression in E. coli” value is recorded as “not soluble”.

For the sequence “MEKLAAKVLENFDFLKKLLRDRAECGESEITIYDDPVTIVVKRDRIDFFINEEYHGSVGVGFNTLSDEIREEARLWLEGLAGMKFKRYAVRR”, the “soluble on expression in E. coli” value is recorded as “not soluble”.

Take “MEKLAIGVDVGTTQAKAVAFQANGTVVASSYVRYPLIQETEGMAEQDPETLFQAVVNCIRTVTQQVKNQPIGLISFASAMHGLIAMDAQGRPLTQVITWADTRASDYAEALKETPAAQLFYQLTGMPVHPMAPLYKIRWLQENQPAVAQSAAKFIGIKDYIFYRFFGEYWTDYSSASGMGLFNIHTRQWETSILAYLSIEEEQLPKVAPSTFIFPALAPSWQEMLGVEEETVLVLGGADGPLSNLGLGALGMGVATLTVGTSGALRYIVEEPFLHPQGETFCFALDEQHWVIGGASSNGAVALDWASQTIFAEERQQAIQNGTNLYDPIMAKIATVPAGANGLLFHPYLLGERAPLWNAEASASFIGLRKNHHAGHLARAVVEGICFNLKTILEDLKQLGGPVQEIRATGGFADSPVFRQIMADVLGETLSFTDSTEASALGAVLLGWQGLGQLPNLQAAAQQVLIHETVTPRADQLLVYQELYPVFQETQQVLAQSYQKLAEFRK”: the “soluble on expression in E. coli” value is “not soluble”.

Take “MEKLLSELAELGARQKFNGEIDFGAEIASDSLLEVMKIVGSEELSQQVLEGFLEQAPTIHQVLLGMTFASYLQSTTSGEASPGAQELSEPLKKARRSIRLLLNLTQRSPDFASRISSESVELLETLLATGSFDVECLIILLKTSQATWLEFQKSPRYSALLQRVLSKYSPDFSENSTILAYFSVLFEMDYGFLSMCYAEMDAPTFCEILDVLRVILTRKTLKIHSNNLLFVLNLLELVVVDYEAFWRARERKEPQSVEQRRVATVEILNLEVEIVGEMCSNTEMTSYLNEKATAMNSVVDVLDAVSIFRNKISIFLDFFQILHAEALFADFRAEQPSDWPKIESEHPRFEVLKRKIEEERRYEETQRRYPDRPRQPLPPKIQRVESSESLSLLANTIFSKYRSIDDVIGVPRVGELKLNCLKAIANLANLSDSNKLATLQNGRQGLISVLQCTTRRPEYFLESFTMRNQSIFCVRQLTDGCQENKEVVFNLQQPNQPIIDRKRLLEELGVHVDN”: the “soluble on expression in E. coli” value is listed as “not soluble”.

For “MEKLVAYKRMPLWNKQTMPEAVQQKHNTKVGTWGKITVLKGALKFIELTEEGEVLAEHLFEAGADNPMAQPQAWHRVEAATDDVEWYLEFYCKPEDYFAKKYNTNPVHSEVLEAMQTVKQGKALDLGCGQGRNSLFLAQQDFDVTAVDQNGLALEILQSIVEQEDLDMPVGLYDINSASIEQEYDFIVSTVVLMFLQADRIPAIIQNMQEKTSVGGYNLIVCAMDTEDYPCSVNFPFTFKEGELADYYKDWELVKYNENPGHLHRRDENGNRIQLRFATLLAKKIK”, the “soluble on expression in E. coli” value was “not soluble”.

Regarding “MEKNRSAFQQNQQASNQPFNQDQNQYYQDPNQQQFNQSGFDPNQQQFNQPGFDPNQQYYQDPNQQQFNQAGFDQNQQYYQDPNQQQFNQPGFDPNQQYYQDPNQQQFNQAGFDQNQYYQDPNQQQFNQSGFDQNQYYQDPNQQQFNQPSFDLNNQQFNQPGFNQSPAFEITPQEQKAEQEMFGEEPPQVVREIHELPFEKIRSFLQSDFDSYNFRLNSLKSKLDNALYSLDKTIQNTNENTANLEAIRHNLEQKIQNQSKQLRTNFDTQKLDDKINELEIRMQKLTRNFESLSELSKHNSYPNYYEKLLPNGGDSMTNVFEKALMMNLLRTTLPPQPQVQYYPQPYPYIRPYYDEPIYAGFRRRGYRDDFYE”, the “soluble on expression in E. coli” value is “soluble”.

As to “MEKQEEEDVKRRQRQKAATSLGFLHWEELKNHGDLSKVALNIALTTLVDDASTGFCIMNLVNLIVLRESSQGYLLTYEGKLASLASATYVKAFISLWVLEDAERHAWSFRTFSLTFPLDDPILDTFLELTGVTEAGEFVYAPTTLQSPFHALYFDPQRNSFRRVIYEGLADDEFRRRNRLGYERHHILPNHIESLISL”, the “soluble on expression in E. coli” value was “soluble”.

As to “MEKSEIQKVDQVIRAWLEDEPLMYERLLEVEALEALPQVLGPLYKFLGRSRIHDGVLYLTFNSSVVRSQLSNNKAELLLRLNTAVDAELIRQIVFL”, the “soluble on expression in E. coli” value is on record as “not soluble”.

As for “MEKSVSVILLAGGQGKRMKMSMPKQYIPLLGQPIALYSFFTFSRMPEVKEIVVVCDPFFRDIFEEYEESIDVDLRFAIPGKERQDSVYSGLQEIDVNSELVCIHDSARPLVNTEDVEKVLKDGSAVGAAVLGVPAKATIKEVNSDSLVVKTLDRKTLWEMQTPQVIKPELLKKGFELVKSEGLEVTDDVSIVEYLKHPVYVSQGSYTNIKVTTPDDLLLAERILSEDS”, the “soluble on expression in E. coli” value is “soluble”.

As for “MEKTVIGVVHLLPLPGSPEHTDLSAVIDKAVKDARAIEEGGADALILENYGDKPFLKEVGKETVAAMTVIACEVKRDVSIGLGINVLRNDAVAALAIAKAVNADFVRVNQLFFTSVSPEGILEGKAGEVMRYKKLVDCRAMIFADIAVKHAVHFASLEDYCLNAERSLADAVILTGKTTGGEVSLEELKYAKKTLKMPVLAGSGVNAENAARILKWCDGVIVGTYIKRGGLVDAERVRRIVRAAKGLEHHHHHH”, the “soluble on expression in E. coli” value is “not soluble”.

For the sequence “MEKVNPKIQRLMSTDKQHFLTKHEFHTKETAERKDLLKFFIETRLKTDGGFLTNYLPDAERKDVATGHELLSESSGLYLRNLAFDTQGRFDNFYKQTKDTFYDGVQFSYRIDEQGNKYNVNASIDDLRIIRSLIEAGGHFKTDQYDQEIKKLGKSFMKTSMKDNILIDFYDSKSKQQSSETSLFYIDLITLGYLYKEFGISADYLQYHYQLIDDGYISDDLPLYQTKFNHQTNKYENNGTLNIIESLLTIVHLSEVGMAKQTSIDFVRKQVQQGTLFNSYDLNGSPVDKNQSAASYAIAALIGVAENDKELYRAAITVLNNFQIMDSSSPIYGGFGDKVTKQVYSYNNLMALLAYDF”, the “soluble on expression in E. coli” value is “not soluble”.

As to “MEKYLPILRNSPFFKGLSDNEILSILHCVNATVISKERASYIFRAGDSTEVMGLVVSGCVLVMQEDLWGHRNILSKCHAGDFFGEPYAASLGAVLNISVAADEDCEIIFLNVQRLLVTCQTACEHHQKLIRNLVSVLANKILILNDKITHVGKRTTRDKLLSYLSAESIRRSSLSFDIPFDRQQLADYLCIDRAAMSTEISKLQKEGFIKTNRNHFELIACNETDLQADK”, the “soluble on expression in E. coli” value is listed as “not soluble”.

As to “MELASNFDEFISTQSIEEGLDFGCNLLSSALRLQGDTDPAQAQVLLQELTQYLSLRYVGEHGLALEYLAGLGHQCSPDNYRHSQFWGQLKWIANEIGLSDTALNSLALPPGVLRSGGA”, the “soluble on expression in E. coli” value is “not soluble”.

As for “MELEQREGTMAAVGFEEFSAPPGSELALPPLFGGHILESELETEVEFVSGGLGGSGLRERDEEEEAARGRRRRQRELNRRKYQALGRRCREIEQVNERVLNRLHQVQRITRRLQQERRFLMRVLDSYGDDYRASQFTIVLEDEGSQGTDAPTPGNAENEPPEKETLSPPRRTPAPPEPGSPAPGEGPSGRKRRRVPRDGRRAGNALTPELAPVQIKVEEDFGFEADEALDSSWVSRGPDKLLPYPTLASPASD”, the “soluble on expression in E. coli” value was “soluble”.
